According to the DeepSol protein solubility set:

Assay: soluble on expression in E. coli; label from the status in PepcDB or PDB records
With “MAAFEAHDYALAERQAQALLAHPATASGARFMLGYVYAFMDRFDEARASFQALQQQAQKSGDHTAEHRALHQVGMVERMAGNWDAARRCFLEERELLASLPEDPLAASANAYEVATVALHFGDLAGARQEYEKSLVYAQQADDQVAIACAFRGLGDLAQQEKNLLEAQQHWLRARDIFAELEDSEAVNELMTRLNGLEHHHHHH” the “soluble on expression in E. coli” value was “not soluble”. For “MAAISFLGDLIQTISDRGRDLIGLARSDLARTASAADLARFCEDLISRRGEASGVALARLILDRYAAFPLEDRLAFLELIATEFGADHDAVDAAIAAYRADPTRARLGLLHVAAEPRSQELIRRLNLARGGTLALVRMREDLFTLRKRLKDREAAPETIDATVSLDSDFEHLFASWFNRGFLVLRPIDWSTPADILEKIIRYEAVHEIADWDELRRRIQPTDRRCFAFFHPALLDEPLIFVEVALTNAIAPAIQPILADGREPVPARSATTAIFYSISNCQKGLAGVTFGNFLIKQVVEDLAREIPSLKTFVTLSPVPGFRTWLDRERGAGAPQGLTREDVEALRLLDTEDWRSDKTKCEAVRRAMLPAAAAYFLRAKNEKGRPLDPVARFHLGNGARLERMNFLGDTSKKGLKQSYGLMVNYLYDLSAIEKNHETYVNLGTVATSSAVSRELRSNLPPPRAVVLAEAGLEHHHHHH”, the “soluble on expression in E. coli” value was “not soluble”. With “MAAKLQKWRNLAGRLDLMNRSGAVSTRRFLHEGPDTVEELLERHLAKKEKPIIDHDEAEFLNRRRLTSTRREALSLYRDILRATRFFTWIDSRGNLWRDVLRENARKEFEAARFETDPEVITRLLIGGSDAVSSALDKLAEKQREMIEKQRRGDQR” the “soluble on expression in E. coli” value was “soluble”. With “MAAKPILYSSWSSGCSSRVRTALALKKIDYEYQPVNLLNKQKEQEFHGNNPAEKVPILKINGLTLTESMAIIEYLDEIYPDPPLLPKEPELKARARAIAFHIASNIQPLQNKPIYLMLNEKEPGYGDFWCQHFISKGFKALEELLQMHSGDFCVGNQISIADICLPSIVYNAIEKYHVDMTPYPIITRISNKLAELPEFQVAHPNNQPDAPKN” the “soluble on expression in E. coli” value was “not soluble”. In the case of “MAANRVAMEEDITESVTLMVDSVSSSPMTPKTVTVKEDETHHPYAFHVSGPRNVASPNWRDLINSSWKDPNYKRTVMACFIQAAYLLELDRQENRNEQNALAPKWWIPFKYKLSQTLIDERDGSIFGAVLEWDRAAAMADLVVIRPSGAPKAVLALRGTILKSLTMRRDIEDDLRFLAWESLKGSVRFNVALEALQSVATRYGSSNVCVVGHSLGAGFALQVGKSLAKEGLFVDAHLFNPPSISVAMSLRNISEKAGVAWKRLMSMLPPKHEPLIQNSNEGQVSPSNVSSGFRNWVPSFYGSNQKPTVDLRKWVPHLYVNDSDYICCHYTDQDGVAEKREMNNKENNSPVVNTNFQAAAKLFVMSKGKQKFHEAHGLEQWWSDNLELQSAIHSSRLISQQLKSLYSIK”, the “soluble on expression in E. coli” value was “soluble”. With “MAAPGPALCLFDVDGTLTAPRQKITKEMDDFLQKLRQKIKIGVVGGSDFEKVQEQLGNDVVEKYDYVFPENGLVAYKDGKLLCRQNIQSHLGEALIQDLINYCLSYIAKIKLPKKRGTFIEFRNGMLNVSPIGRSCSQEERIEFYELDKKENIRQKFVADLRKEFAGKGLTFSIGGQISFDVFPDGWDKRYCLRHVENDGYKTIYFFGDKTMPGGNDHEIFTDPRTMGYSVTAPEDTRRICELLFS” the “soluble on expression in E. coli” value was “soluble”. With “MAARKLIARINPTNSALFVCDLQEKFASNIKYFPEIITTSRRLIDAARILSIPTIVTEQYPKGLGHTVPTLKEGLAENTPIFDKTKFSMCIPPTEDTLKKVQNVILVGIEAHVCVLQTTYDLLERGLNVHVVVDAVSSRSHTDRHFAFKQMEQAGAILTTSEATILGLVGGSDHPKFKEVQKLILTSAPDTGLVPLSKL” the “soluble on expression in E. coli” value was “soluble”. With “MAAVVALSLRRRLPATTLGGACLQASRGAQTAAATAPRIKKFAIYRWDPDKAGDKPHMQTYKVDLNKCGPMVLDALIKIKNEVDSTLTFRRSCREGICGSCAMNINGGNTLACTRRIDTNLNKVSKIYPLPHMYVIKDLVPDLSNFYAQYKSIEPYLKKKDESQEGKQQYLQSIEEREKLDGLYECILCACCSTSCPSYWWNGDKYLGPAVLMQAYRWMIDSRDDFTEERLAKLQDPFSLYRCHTIMNCTRTCPKGLNPGKAIAEIKKMMATYKEKKASV” the “soluble on expression in E. coli” value was “not soluble”. In the case of “MAAYSYRPGPGAGPGPAAGAALPDQSFLWNVFQRVDKDRSGVISDTELQQALSNGTWTPFNPVTVRSIISMFDRENKAGVNFSEFTGVWKYITDWQNVFRTYDRDNSGMIDKNELKQALSGFGYRLSDQFHDILIRKFDRQGRGQIAFDDFIQGCIVLQRLTDIFRRYDTDQDGWIQVSYEQYLSMVFSIV”, the “soluble on expression in E. coli” value was “soluble”. For “MACKRLVPGGEIERTRRVLDLFADSGSRVIRPQQPVDVLGSEGPAKVLGQVQNNVAVQYDHMVRGIGHDTGLESDQVCRLTERGICVRELLTLVFGDKALGAEHGDIRRGHTQDAGVL”, the “soluble on expression in E. coli” value was “not soluble”. In the case of “MADERRCGVCRPLGGPRQPWPAGLLHCSSRAIFASLCMPRIVFAPAIQRHVAMPALDVGAATVAAALQAAFAREPRLRGYLLDDQGSLRRHVALFVDGVQVRDRRGLGDPLQDDSEIYVVQALSGGLEHHHHHH”, the “soluble on expression in E. coli” value was “not soluble”. In the case of “MADFDNLFDAAIARADETIRGYMGTSATITSGEQSGAVIRGVFDDPENISYAGQGVRVEGSSPSLFVRTDEVRQLRRGDTLTIGEENFWVDRVSPDDGGSCHLWLGRGVPPAVNRRR”, the “soluble on expression in E. coli” value was “soluble”. In the case of “MADKKAPAAGWPVANGEYVVGNPESCVAVITLGSHGLDQAAIDAGAAISGPCHTENLGIEKVVANYISNPNIRFMVIAGSEVQGHITGQCIKALYENGIGDDGGIIGAKGAIPFMENVGKEPVGRLQTQVVECIDLIDVEDKGKIADAIKNCISKDPGAFEEDPMVIELEGGAAAAGDEEGGLMIEGIPTVAEPDIESIKSLNEALDYKVGLMTRDLGLASGVQTETVTG”, the “soluble on expression in E. coli” value was “not soluble”. For “MADLDDIKDGKDFHTDKPQTNTLFALKGCGALDWGMQSRLARIFNPKTRKTVMLAFDHGYFQGPTTGLERIDINIAPLFEYADVLMCTRGILRSVVPPAINKPVVLRASGANSILTELSNEAVAVAMDDAVRLNSCAAAAQVYIGSEHEHQSIKNIIQLIDAGLRVGMPIMAVTGVGKDMARDQRYFSLATRIAAEMGAQIIKTYYVDKGFERIAAGCPVPIVIAGGKKLPEREALEMCYQAIDQGASGVDMGRNIFQSEDPVAMIKAVHAVVHHNETAERAYELFLSEKS”, the “soluble on expression in E. coli” value was “not soluble”. In the case of “MADNKITFFGKCDGISVEQLIRYSRFNMNVKHFHNQYEIFYIIEGERQFFFDNKSYNAYAGDIAILDTNLVHTTCSISDEDKGYNRVILYIDYEKMCDFDKKYPGLNLVNYFHNNYGIYHLNEDQRIAFLNLYRDLRHELTKKNSGYQSRVEIATIYWLYKLLSLKHDSTQIHAVINSPKE”, the “soluble on expression in E. coli” value was “not soluble”. In the case of “MADNPTNLRNADFRKLLTSARSDRPAVSAFAKPADPKTGDDKPASFKHKHLKPAKFKKPQAAAHGKAKKEKTEADEDEAALKNILKNYRDRAAERRKQGDEKEDPSKLTAAYRAVPGDARSAQDQADLRKQAILESKYLGGDLEHTHLVKGLDYSLLNKVRSEIDKSDDDDDDDIDTAFDEKVTSSSSSSKPSEASLLAQELAQSHSENRMVRSLHRVLFKNEVPLHNQLFAKGRMAYVVELEDEETDIPTTLLRSLHDLPRAESAQSIQANNLIILKLSHVLSHLRAEPKKKKKEEFRVQLGSRDAPGAAAAAPGAKGDSIYDDLDDYVPSRKSRDSRDAGRRGSRRDRSRDRSRDRDRDRDRDNRDRYFEKSANSRREEEQNRREQQRERERAEQERRREREKEREQEKAKEREKKRKELEESSGYDECYPGGLVEMGGAWDSDEEADYSKMDAGPKKNQAVNRWDFDTEEEYASYMEGREALPKAAYQYGVKNGEGGRKNKKQSAVSDAKRLDRELNEINKIMDKRKAGGDGAGGGGDYKKPKY”, the “soluble on expression in E. coli” value was “not soluble”. In the case of “MADNSDANGVPYYFLINMGGGFVEGEQYQVTIDVNKDAHALVTTQTPTYVYKCEKGQLTQQNTSITLEENSYLEYMADEVIPYLKSRYFQTSRIDMDKSAHLIYSDGVTAGWSHEDLPFQYHYFRNLTQIYQDNELVYSDQTLLEPEKQDMFKLGYFEGWRNYNSLVMVSPNIDEAFVKALQKHLEGLNLESDFAISSLDISGLVLRILGKTAEDNRRIIYSCADYFRQEIHGLTPLNLRKNDMRRLEHHHHHH”, the “soluble on expression in E. coli” value was “not soluble”.
